# B1: HDV Ribozyme (parent)
# chain: GGCCGGCAUGGUCCCAGCCUCCUCGCUGGCGCCGGCUGGGCAACAUUCCGAGGGGACCGUCCCCUCGGUAAUGGCGAAUGGGACCCA
# Variants of: B1
# Experiment: self-cleavage, relative activity (ratio to wild type); higher = more cleavage; co-transcriptional
row,Variant,self-cleavage
1,G25A C61A,0.201
2,C26A U27G,0.733
3,C26A U27C,1.04
4,G25U G35A,0.0415
5,G25U G28A,0
6,C26A C32G,0
7,C26G A56G,0.795
8,C26U C63G,0.883
9,G25U A77C,0.0504
10,G25C C36U,0.0978
11,C26G G76U,0.916
12,C26U A78C,0.35
13,C26G U37G,0.111
14,C26G U37C,1.01
15,C26A C64G,0.95
16,G25C A83U,0.0923
17,C26G C33A,0.298
18,C24U C66A,0.525
19,C26U C30G,0.0941
20,C26A C58G,1.09
21,C26A C58A,1.24
22,G25A A42U,0
23,G25A G29U,0.0941
24,G25A G29C,0.0583

row,Variant,self-cleavage
1,C26A C49U,0.849
2,G25U C44A,0.0852
3,G25U C44U,0.119
4,G25U A70C,0.237
5,C26A G59A,1
6,G25U G55U,0.151
7,C26A A45U,1.19
8,C26A A45C,0.554
9,C26A A45G,0.978
10,G25A C63U,0.289
11,C24U C32G,0
12,G25C A77G,0.111
13,G25C G52A,0.17
14,G25C C64G,0.0573
15,G25U G52C,0.208
16,C26U A70U,1.01
17,C24U G73U,0.122
18,C24U U47C,0.739
19,G25A G81A,0.125
20,C26A A51G,1.11
21,G25U A71G,0.101
22,C26A G52C,0.872
23,C26G G39A,0.18
24,C26A U65C,1.21

row,Variant,self-cleavage
1,C26U G68C,1.03
2,C26U G68U,1.13
3,C26U G68A,1.02
4,G25C U60C,0.0504
5,G25A A51G,0.269
6,C24U C44G,0.119
7,G25A C48U,0.264
8,C26G A83G,0.851
9,C26G A83U,0.917
10,C26G C61U,1.06
11,C26G C61G,0.811
12,G25A G55C,0.191
13,G25C U72G,0.0639
14,G25U G81U,0.138
15,G25C G31A,0.135
16,C24U G31U,0.0228
17,C24U C64G,0.779
18,C26U C62G,0.618
19,C26U C62U,1.1
20,C26U C62A,1.08
21,G25C C44A,0.185
22,G25C C44G,0.101
23,C26A C62U,1.12
24,C24U G25C,0.125

row,Variant,self-cleavage
1,C24U G25A,0.181
2,C26G G50A,0.923
3,G25U C85A,0.125
4,G25U C85G,0.0755
5,G25C G40U,0.0563
6,G25C G40C,0.156
7,C26G U60G,0.525
8,G25C C75A,0
9,C26G G82U,0.604
10,G25A C44U,0.107
11,G25A C44A,0
12,C26G G28A,0.0449
13,C24U C49U,0.758
14,C24U G55C,0.729
15,G25A U72A,0.158
16,C26U A83U,0.79
17,C26U A83G,0.776
18,C26A G40U,0.946
19,C26U A43C,0.831
20,G25U C57G,0.208
21,G25U C57A,0.192
22,C26G A78C,0
23,G25A C32U,0.169
24,C26A G54U,1.03

row,Variant,self-cleavage
1,G25A U37C,0.141
2,G25A U37A,0.213
3,C26A C61G,1.04
4,C26A C61U,0.974
5,C26A C61A,0.865
6,C24U C85G,0.629
7,C24U C85U,0.718
8,C24U C85A,0.831
9,C26U A45U,0.77
10,C26A U47A,0.731
11,C26A U47G,0.923
12,G25U G67C,0.277
13,C26A G31C,0.453
14,C26A G31A,0.818
15,C26A A87U,1.21
16,C24U U72G,0.323
17,C26A G53U,0.932
18,C26A G50A,0.881
19,G25A G28C,0.231
20,G25A G28A,0.0482
21,G25A G28U,0.0185
22,C26G G81U,0.567
23,C26G G38A,0.0978
24,C26G A42C,0.158

row,Variant,self-cleavage
1,C26G A42G,0.639
2,C26A G28A,0.166
3,C24U G80C,0.179
4,C26A U72C,0.867
5,C24U U79C,0.161
6,C26A A71C,1.07
7,C26G G54A,0.655
8,C26G C30G,0
9,C26G C57U,1.02
10,G25A G40U,0.161
11,G25U U72C,0.111
12,G25U U72G,0.181
13,C26G G34C,0
14,C24U C33G,0.166
15,C24U C33A,0.0845
16,G25A C84A,0.175
17,G25U G76C,0.224
18,G25U G76A,0
19,G25U G76U,0.389
20,C26A G55C,0.862
21,C26A G55U,1.17
22,C26A C30A,0.491
23,G25U G53C,0.155
24,G25A G34A,0.0863

row,Variant,self-cleavage
1,G25A G34C,0.229
2,G25U U79A,0.0875
3,G25U G80C,0.0733
4,G25A C62G,0.151
5,G25A C62U,0.182
6,G25C C85A,0.0594
7,C26U G34U,0.767
8,G25C C30G,0.0959
9,G25C C30U,0.0326
10,G25U G73A,0.0923
11,G25U G73C,0.0415
12,G25U G73U,0.117
13,G25C C26G,0.731
14,G25C C26A,0.196
15,G25A A45C,0.227
16,G25A A45U,0.0489
17,C24U A83U,0.198
18,C24U A83C,0.219
19,C24U A83G,0.394
20,C26G G31A,0.744
21,C26G G31C,0.284
22,C26G G31U,0.48
23,C26G C44U,1.04
24,C26G A45C,0.364

row,Variant,self-cleavage
1,C26G A45G,1.04
2,C26G A45U,0.895
3,G25A G50A,0.406
4,G25A G50U,0.242
5,G25A G67A,0.299
6,G25A G67C,0.277
7,C24U A78U,0.172
8,C24U G68C,0.456
9,C24U G68A,0.831
10,C24U G68U,0.891
11,C26A C57U,0.959
12,C26U A56G,1.08
13,G25C U65A,0.155
14,C26G G74A,0.441
15,C26G G74C,0.0573
16,C26A C36U,0.629
17,C26U C61U,0.941
18,C26U C61A,1.06
19,G25U C66G,0.0354
20,G25C G35U,0.0692
21,C26G A87C,1.02
22,C26G A87G,1.07
23,G25A G76C,0.217
24,G25C U27G,0

row,Variant,self-cleavage
1,G25C U27C,0.128
2,C26G G67C,0.8
3,G25A A83U,0.0678
4,G25U G31C,0.101
5,G25U G31U,0.0875
6,C26A G67U,1.04
7,C26A G67C,0.985
8,G25C G28C,0
9,G25C G28U,0.119
10,G25A C86G,0.122
11,G25A C86A,0.104
12,C26A G82A,0.721
13,G25A G53C,0.248
14,G25A G53A,0.245
15,G25C C62U,0.145
16,G25C C62G,0.0615
17,C24U C75U,0.197
18,C24U C61G,0.745
19,C26G U72G,0.755
20,C26G U72A,0.615
21,C26G C85U,0.956
22,C24U A70U,0.598
23,G25A C66A,0.287
24,C26G C66A,1.05

row,Variant,self-cleavage
1,G25U C30G,0.148
2,G25U C30A,0.158
3,G25U C48A,0.332
4,C24U C63A,0.753
5,G25A G54C,0.138
6,G25U U65G,0.269
7,C26U G40U,1.03
8,G25C G34A,0.143
9,G25C U37C,0.0554
10,G25A G35A,0.271
11,C26A G80A,0.544
12,C26A G80C,0.348
13,C26A G80U,0.398
14,C26G A70U,0.875
15,G25U G54U,0.228
16,G25C G80U,0.126
17,C26U G50U,1.12
18,C26U G50C,1
19,C26G G53U,0.812
20,C26U A42C,0.308
21,G25A G82U,0.119
22,C26U C85G,1.22
23,C26U C85U,0.935
24,C26U C66G,0.861

row,Variant,self-cleavage
1,G25U G29A,0.0369
2,C26G A51C,1.13
3,G25U C61A,0.287
4,C26G G29C,0.0504
5,G25C U47C,0
6,C24U A51C,0.767
7,C24U A51U,0.681
8,G25A C41U,0.155
9,C26A G74C,0.237
10,C26A G74U,0.519
11,G25A C58G,0.111
12,G25A C58A,0.237
13,C26G C62U,1.09
14,C26G C62A,0.985
15,G25A C30U,0.143
16,G25U G40C,0.0297
17,G25U G40U,0.193
18,G25C G82C,0.0326
19,G25C G82U,0.0755
20,C26U C41A,1.15
21,C24U A45G,0.373
22,C24U G34U,0.17
23,G25U C62U,0.0615
24,C26U G31C,0.542

row,Variant,self-cleavage
1,C26U C49U,0.89
2,C26U C49G,0.973
3,C26U C49A,1.11
4,G25C A78G,0
5,G25U G59U,0.0511
6,G25U G59C,0.0997
7,G25U G59A,0.104
8,G25A U27A,0.161
9,C26A G68U,0.929
10,C26A G68C,0.87
11,G25U G34U,0.026
12,G25A A43U,0.0437
13,C26U G38U,0.616
14,C24U C41A,0.608
15,G25C G29U,0.0773
16,C24U C48A,0.692
17,C24U C48U,0.604
18,G25C G68U,0.161
19,C26G G55C,1.04
20,C24U U37A,0.18
21,C24U U37C,0.753
22,G25C C57G,0.119
23,C26G C58U,0.931
24,G25A U60A,0.295

row,Variant,self-cleavage
1,G25A U60C,0.138
2,C24U A87G,0.55
3,C26G A43G,0.437
4,G25U C63G,0.203
5,G25U C63A,0.0791
6,G25U C63U,0.163
7,C26G G80C,0.212
8,G25A C64U,0.204
9,G25A C64G,0.13
10,G25U C58U,0.217
11,G25U C58G,0.18
12,G25U U69C,0.229
13,G25U U69A,0.196
14,C26A C75U,0.203
15,C26A A78C,0.284
16,C26G C84U,0.696
17,G25U U27G,0.185
18,G25U U37A,0.0831
19,G25C C66G,0.0978
20,G25U C75A,0.0941
21,G25U C75G,0.128
22,C26U A77C,0.883
23,G25A G68C,0.253
24,C24U G52C,0.884

row,Variant,self-cleavage
1,C24U G52U,0.694
2,G25U U60G,0.229
3,C24U G29A,0.0415
4,C26G U65C,1.16
5,C26G U46G,0.554
6,C24U G76U,0.917
7,C26U G52U,0.956
8,C26U G52A,1.14
9,C24U A71C,0.453
10,G25U C41U,0.188
11,G25C G55U,0.089
12,G25A A77C,0.0978
13,G25A A78G,0.0339
14,C24U U60A,0.627
15,C24U U60C,0.752
16,C26A U37G,0.19
17,C26A U37A,0.166
18,G25C A87G,0.174
19,C24U G39U,0.111
20,C24U G39C,0.0302
21,C24U G39A,0.257
22,G25C A51C,0.128

# From the RNAGym collection of RNA variant scans (doi:10.7554/elife.80360)
